From PMC12009414 come the findings set out here.

In data set [1] the target is T1, Polθ-hel WT (DNA polymerase theta helicase domain) (human, UniProt O75417 1-894). Kind of data set: EMSA.
For data set [2], the target named is T1, Polθ-hel WT (DNA polymerase theta …). Nature of the data set: fluorescence anisotropy. On the technique in general: Polarisation of emitted light reports the rotation of a fluorescent probe.
Data set [3] has the same target. Kind of data set: cryo-EM structure.

T1 sequence (O75417 1-894): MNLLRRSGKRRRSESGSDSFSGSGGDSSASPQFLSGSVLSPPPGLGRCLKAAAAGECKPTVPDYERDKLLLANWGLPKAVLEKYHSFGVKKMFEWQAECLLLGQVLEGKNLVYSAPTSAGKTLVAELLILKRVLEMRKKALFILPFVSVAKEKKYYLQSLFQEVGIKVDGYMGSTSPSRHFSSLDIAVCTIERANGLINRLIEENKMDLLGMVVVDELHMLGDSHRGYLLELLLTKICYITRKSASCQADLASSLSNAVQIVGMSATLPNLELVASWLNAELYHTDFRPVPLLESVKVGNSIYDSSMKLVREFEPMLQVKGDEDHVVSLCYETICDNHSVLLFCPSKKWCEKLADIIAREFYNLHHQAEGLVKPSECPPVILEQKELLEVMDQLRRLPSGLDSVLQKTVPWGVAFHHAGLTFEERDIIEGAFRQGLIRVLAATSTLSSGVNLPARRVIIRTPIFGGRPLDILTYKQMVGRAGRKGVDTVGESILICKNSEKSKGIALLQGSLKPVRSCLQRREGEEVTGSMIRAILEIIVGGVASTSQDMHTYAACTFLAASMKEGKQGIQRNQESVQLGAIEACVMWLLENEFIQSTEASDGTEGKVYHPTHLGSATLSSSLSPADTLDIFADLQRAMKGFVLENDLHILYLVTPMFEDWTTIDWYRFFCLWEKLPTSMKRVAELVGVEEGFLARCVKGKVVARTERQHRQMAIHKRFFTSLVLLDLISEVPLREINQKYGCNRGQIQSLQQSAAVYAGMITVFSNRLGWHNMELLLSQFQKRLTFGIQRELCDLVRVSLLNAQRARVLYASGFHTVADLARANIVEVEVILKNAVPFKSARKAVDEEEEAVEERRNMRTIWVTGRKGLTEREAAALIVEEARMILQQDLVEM

B1: 15-nt poly(T) without MH (unlabeled) (dsDNA)
DNA 1: CCAACCGACCACACCCACCACCCTACCGCCTTTTTTTTTTTTTTT
DNA 2: GGCGGTAGGGTGGTGGGTGTGGTCGGTTGG
For the molecule B1, in data set [1], the binding result is listed as “binds”.

B2: FAM-11T + MH (dsDNA)
DNA 1: CCAACCGACCACACCCACCACCCTACCGCCTTTTTTTTTTTCCCGGG
DNA 2: GGCGGTAGGGTGGTGGGTGTGGTCGGTTGG
Consider B2, for which the binding result in data set [2] is recorded as “binds”.

B3: 11-nt poly(T) with MH (unlabeled) (dsDNA)
DNA 1: CCAACCGACCACACCCACCACCCTACCGCCTTTTTTTTTTTCCCGGG
DNA 2: GGCGGTAGGGTGGTGGGTGTGGTCGGTTGG
Turning to B3, the binding result in data set [3] is recorded as “binds”.

B4: FAM-15T no MH (dsDNA)
DNA 1: CCAACCGACCACACCCACCACCCTACCGCCTTTTTTTTTTTTTTTTT
DNA 2: GGCGGTAGGGTGGTGGGTGTGGTCGGTTGG
With B4, in data set [2], the binding result is listed as “binds”.

B5: FAM-9T + MH (dsDNA)
DNA 1: CCAACCGACCACACCCACCACCCTACCGCCTTTTTTTTTCCCGGG
DNA 2: GGCGGTAGGGTGGTGGGTGTGGTCGGTTGG
With B5, the binding result in data set [2] was “binds”.

B6: 9-nt poly(T) with MH (unlabeled) (dsDNA)
DNA 1: CCAACCGACCACACCCACCACCCTACCGCCTTTTTTTTTCCCGGG
DNA 2: GGCGGTAGGGTGGTGGGTGTGGTCGGTTGG
As for B6, the binding result in data set [1] is “binds”.
